Test results: US20070122429A1, “Designed antigens to elicit neutralizing antibodies against sterically restricted antigen and method of using same” (priority 2005, published 2007)

Key:
[1] = target: HIV-1 HXB2 Env (gp41 N-trimer region) (HIV-1 HXB2) (UniProt P04578); experiment: cell-based or functional assay
[2] = target: HIV-1 JRFL Env (gp41 N-trimer region) (HIV-1 JRFL); experiment: cell-based or functional assay

Substance | no inhibition of cell-cell fusion or viral infectivity (HXB2 Env) up to the stated concentration [1] [µM] | no inhibition of viral infectivity (JRFL Env) up to the stated concentration [2] [µM] | IC50, viral infectivity HXB2 [1] [nM] | IC50, viral infectivity JRFL [2] [nM]
BPTI-H6 (from UniProt P00974 36-93) | > 1 | > 1 | – | –
GFP-H6 | > 1 | > 1 | – | –
MBP-H6 (from UniProt P0AEX9 27-392) | > 1 | > 10 | – | –
Ub-C37 (from UniProt P0CG48 1-76; P04578 625-661) | – | – | 6.8 | 37.7
